# Measurements published in the DeepSol protein solubility set.
# Experiment: soluble on expression in E. coli; label from the status in PepcDB or PDB records
row,Sequence,soluble on expression in E. coli
1,MSQQPGVLPENMKRYMGRDAQRMNILAGRIIAETVRSTLGPKGMDKMLVDDLGDVVVTNDGVTILREMSVEHPAAKMLIEVAKTQEKEVGDGTTTAVVVAGELLRKAEELLDQNVHPTIVVKGYQAAAQKAQELLKTIACEVGAQDKEILTKIAMTSITGKGAEKAKEKLAEIIVEAVSAVVDDEGKVDKDLIKIEKKSGASIDDTELIKGVLVDKERVSAQMPKKVTDAKIALLNCAIEIKETETDAEIRITDPAKLMEFIEQEEKMLKDMVAEIKASGANVLFCQKGIDDLAQHYLAKEGIVAARRVKKSDMEKLAKATGANVITNIKDLSAQDLGDAGLVEERKISGDSMIFVEECKHPKAVTMLIRGTTEHVIEEVARAVDDAVGVVGCTIEDGRIVSGGGSTEVELSMKLREYAEGISGREQLAVRAFADALEVIPRTLAENAGLDAIEILVKVRAAHASNGNKCAGLNVFTGAVEDMCENGVVEPLRVKTQAIQSAAESTEMLLRIDDVIAAEKLRGAPDMGDMGGMPGMGGMPGMM,soluble
2,MSQSDEASVAEPTVVVATPVAVAVTAPATHPRKPPALVISTIACPTIYEQAPSKPASPTMPLSPYEGITADLMQRIQLFSSQFDHARLSPNYATSDLGSSARSSFSSTTSSFLTYRDRSVDFDEAGKELISPFDCDTNCSGTPYSLSTNSGNHFSFEARSVSSLGHSTAHFNQLLAAGAAYELSRERSRSESDMQPTQEDDVRHLNTSTISVPIYAKKPLHKFGGEIKRSSSTPPPTSDEREQVEQRLLLRPSSGMEIKKDLETTNSFVSSWAREQIFAMQNATMYNLLTARSAEDCSTISTPGPLKVFPRSKDDMTFAPRDDSSRAKQMQYPCTLCGQAFAVHDRLAKHIASRHRQRSCTLDDASKVHKCNMCSKSFSRSDMLTRHMRLHTGAKPYSCPTCNQVFSRSDHLSTHLRTHTGEKPYACPMCNYSASRRDMISRHMRTHSLTDDSSISTPISQLSIRSATTSPLPPKIGSTATVEIGSGLLSAFKPILSASSSNLLSVSSPFQSLSLSTPPSPSFAPIVLNRQLSFDVTMRNTTS,soluble
3,MSQSTSSEGSGPAAKIARKNSPENDPETAEMFIVDEITDMRYSTTCRQLQFLVKWAIPGSEMTWQPLDDFPFGLNHFSILDYRKDHEEKYEACLQKQRRSKVMKDDDRSWNVSRNSNRSRNRSKSSSKPAQRTEPMTQREKFDAILQISEISLEKQYKLTNKKVPRRSQFTDPDAPKKKSKGARHYRDQNLKTLFKSSLIRKYRKPQESDDDLEPDVAQDSPENTPAPPTKSPESSGFSENLENLGANTPSPSPDFEEEHLEKKPETGNLTENRPKRVYSHETAESMENYAKLLLYTAFDTKSWETLGGHIKNGFRLSFVCSNGLTIIENVVELNKNLNKFSDSRESRMVADLFELLLKKGVEFDEKTLPPTMCAAVRSTRYDIRRDFRCLHNQYIDKRPRMCEWFSATGGGGSCGTTEICTFWNNDAGYLPNTHQRSKFHVDLSEFTGNNLGLLAFSMAWHEDFIDNNSGGPEIVKNNRFNAHIDVPCFTLWMNGKMCEKLENSHGLSIFRPLGTVLDVNELKIKITEHSSRFVAILPVFNLNSDWKNCFFPLENQ,not soluble
4,MSQTEPPEDLMQYEAMAQDALRGVVKAALKKAAAPGGLPEPHHLYITFKTKAAGVSGPQDLLSKYPDEMTIVLQHQYWDLAPGETFFSVTLKFGGQPKRLSVPYAALTRFYDPSVQFALQFSAPEIIEDEPEPDPEPEDKANQGASGDEGPKIVSLDQFRKKLEHHHHHH,soluble
5,MSRITQVHRILEQKHLDAIIILSDYNRRYLSGFTGTSGALIISKDKQYLITDFRYIDQATKQAPNYEIINRKSTIIGEIKELLHQENFENVGFEGHHVSYDTYLELNKSRISLISISNTVDKIRDVKDADEIALIQKAANIVDETYEYILTVVKAGMTEKELKAILESKMLELGADGPSFDTIVASGHRGALPHGVASDKIIEKGDMITLDFGAYYNGYCSDITRTFAIGEPDPKLKEIYQIVLESQMKAINEIRPGMTGAEADAISRNYLESKGYGKEFGHSLGHGIGLEIHEGPMLARTIQDKLQVNNCVTVEPGVYIEGLGGIRIEDDILITENGCQVFTKCTKDLIVLT,not soluble
6,MSRKTLVDTPITPQSSIGHILRAQFALQNQLPEDKPKTIGFNEAENMKLYELYSGRREEYHSTRPSGQRNEEVPMDTLAREWATEITSMGFAERTPAQIKQRIRDMRKFSRKHAHKLGITNMNAGQELERYAEFSWAEPKRRSRGPVPDWMSGLAEIMMSEQDTKADDADSASDIMEATYGPKAKRLKLQRTEMQLHQLQLHLDMKQRELKQEREKEEGNGNDEQEEREKRDVSPETLLIEKKLRLADAKLHTEHLKQQVSIP,not soluble
7,MSRLRVFRQTGWFIAGLMTGLPATAAPAEASSMAGVAVAVATTTPPDATATLQAMQSCRRESAALERLDCYDHLLAPLSPSGFDGALVKAGFVGEAWTRATEQEKRREGNTTELLVTQVPGERPTVVITTPAIGHVPPRPVLMFSCVDNITRMQVALMHPLDVHDIAVTLNADSRALRSHWFVRENGTLLESSRGLSGIDEIKQLFGAKTLTVDTGADNAAGKLTFNIDGLARAIAPLRDACHWAGE,not soluble
8,MSRPFTGATLCTTIAPHCSRTTAMTTLPAASPEALATSQALCGRISQAIAEAGGWIPFSHYMELALYAPGMGYYAAGSRKLGEDGDFVTAPELTPLFGQSLARQLAELLPQTAGAVYEFGAGTGKLAIDLLAELKALNQLPAKYVILDLSPDLIDRQRQNIRAALPHLADRVEWASSLPDAIDGIVIGNELLDAMPCEMVFRDEDRRLRQRGVTVRDGALCYEDRDFADSRLAELAAQLLPDIPRYETEISLANRAFIATVAGALTRGAILMIDYGHAASEYYHPERSMGTLLGHYRHHTVQDPFYLPGLMDLTCHVDFTAVAQSGIDAGLDLIGYTSQAQFLVNCGLIERLQTLDADDVKAYLPIAKAAQRLLSPQEMGETFKAIGFGKGVSIDWLGFARGDRCYTLLEHHHHHH,soluble
9,MSRQEVGYPFHLGRTLKLPQDPPGMAAIYLQSCSGGLFAGETLHLQLHAGPHTQVHVSTGAATVAHSMLEQPARQTVTLIAETGALLEYLPMATILFPQARLHSVVNVTLHPNARVMLCDAFCLHVPPGSAGLPGFYRADLHIRCPAGTLLAGDRLALTGADLQRRLPGVSAELQALATFMLVGQDLPVDELKRALRDALRVVPESYLGVSALPNDCGVSVRIMTADAVALRSALHLAWACARQQLTGIAPRVRRKLEHHHHHH,not soluble
10,MSRRLRRTKIVTTLGPATDRDNNLEKVIAAGANVVRMNFSHGSPEDHKMRADKVREIAAKLGRHVAILGDLQGPKIRVSTFKEGKVFLNIGDKFLLDANLGKGEGDKEKVGIDYKGLPADVVPGDILLLDDGRVQLKVLEVQGMKVFTEVTVGGPLSNNKGINKLGGGLSAEALTEKDKADIKTAALIGVDYLAVSFPRCGEDLNYARRLARDAGCDAKIVAKVERAEAVCSQDAMDDIILASDVVMVARGDLGVEIGDPELVGIQKALIRRARQLNRAVITATQMMESMITNPMPTRAEVMDVANAVLDGTDAVMLSAETAAGQYPSETVAAMARVCLGAEKIPSINVSKHRLDVQFDNVEEAIAMSAMYAANHLKGVTAIITMTESGRTALMTSRISSGLPIFAMSRHERTLNLTALYRGVTPVHFDSANDGVAAASEAVNLLRDKGYLMSGDLVIVTQGDVMSTVGSTNTTRILTVE,soluble
11,MSRRSNRTINLPAPYLKRIWLDPSQVHDREAYPFCLPIFPDDFELSFDAAITIIVGENGTGKSTILEGIAALAGYDDAGGGKGYMPVDHSDAREKMGGQLSKALRASWLPKITNGWFFRAESFFSVARYLDKAARDAGQVGPDFLSHSHGEGFLRFFEERCQRQGIFIFDEPESALSPARQIEFLKLLRRMDDSRICQVIMATHSPMLMAYPNAKLLRLGKYGLEPVTVEETDHYRLMREFCDDPRGFVEATLAELEHHHHHH,soluble
12,MSRTEGSHEAEQDLTMIVGTYTSGDSKGLYSFRFNEENGTATALSEAEVENPSYLVPSADGKFIYAVSEFSNEQAAANAFAFNKEEGTFRLLNTQKTGGEDPCYIITNGSNVVTANYSGGSISVFPIDKDGSLLPASEVVKFKGSGADKERQEKPHLHCVRITPDGKYLFADDLGTDQIHKFIVNPNAKADNEDVFLKEGSPASYKVEAGSGPRHLTFAPNGSYAYLINELSGTVIAFEYNDGELKEIQTIAADTVGAKGSGDIHISPDGKFLYASNRLKADGLAIFSIHPENGMLTKVGYQLTGIHPRNFIITPNGKYLLVACRDSNVIQVYERDTDTGLLTDIRKDIKVDKPVCIKFVPLEHHHHHH,soluble
13,MSSAHNAYNAGIMQKTGKAFADEFFAEENQVVHESNAVVLVLMKSDEIDAIIEDIVLKGGKAKNPSIVVEDKAGFWWIKADGAIEIDAAEAGELLGKPFSVYDLLINVSSTVGRAYTLGTKFTITSELMGLDRALTDI,soluble
14,MSSETLEFSGCNFFRIRLAYSILSGRPIRIINIRKNDDRPGIRDFESKLIGLLEKVTNGTKVEISRTGTQVIFRPGMITGGVVNLDCGTERCISYFLEPLLLLSPFCKVPMVIKLKGVTNAPGEISVDGMKASWLKVYNKFVLNDEKLDIKIQARGLKPEGGGVVVFTAPIVKTLRPVKRQQVGKVCKIRGQAYVTKVTPSLAYRMIDAAKKAMHGYISDVYITVDQRKGDAGGASPGYGLFLTAETTEGVIYQAEAISRPKGESGVPILPEDIGIEAGHALLQQIYMGGALDSSAQILASTFMTLCPKDVSHFLYGPLPMYSVHALRHLKQFFEIEFKMEDFKKTLKEEEADLKTGSADKAMVTAVGVGYSNLNKTIL,not soluble
15,MSSGSTSTTPRAWLSGSVVTGKCCLLVIRKGQRPGVPFPAPCASGVAVTGRPPCATGGRGRTRPPTGVGEDTKDSCGKGIADETPRRHHGGPATRKAGRATGRSERGHSRGTRPAELMPIPRSPVVVALGAFEISNES,not soluble
16,MSSHHHHHHSSGLVPRGSHMASMSDSEVNQEAKPEVKPEVKPETHINLKVSDGSSEIFFKIKKTTPLRRLMEAFAKRQGKEMDSLRFLYDGIRIQADQTPEDLDMEDNDIIEAHREQIGGSLMIIENSHVKKDDIWPSGGQMTVKDLTAKYTEGGNAILENISFSISPGQRVGLLGRTGSGKSTLLSAFLRLLNTEGEIQIDGVSWDSITLQQWRKAFGVIPQKVFIFSGTFRKNLDPYEQWSDQEIWKVADEVGLRSVIEQFPGKLDFVLVDGGCVLSHGHKQLMCLARSVLSKAKILLLDQPSAHLDPVTYQIIRRTLKQAFADCTVILCEHRIEAMLECQQFLVIEENKVRQYDSIQKLLNERSLFRQAISPSDRVKLFPHRNSSK,soluble
17,MSSMSESDSYQSSQLTSEPDLVALDAKIMAVMDGTEELEREIGKMMALQQAISDYKKSHQHRTQRTKEKLTDMSKDLTITGKNIVKSCEERLKQISDVTEPYINSGISSVEDHTSSVVERCIQMLGAISGLGGAMKKTEGLSSKVLEHHRKLAIMEHKQADAISRYEKAVGVQKLVREHPAGDPLHELANLLGIFLALQQSPNTSEYYKKVFDGFGGRVTALFAEIDRPKTAKSLATRSGMSTLSSMSNGEINLESIKDNTEIPVDTCQ,not soluble
18,MSSNNRKKLLLMGRSGSGKSSMRSIIFSNYSAFDTRRLGATIDVEHSHLRFLGNMTLNLWDCGGQDVFMENYFTKQKDHIFQMVQVLIHVFDVESTEVLKDIEIFAKALKQLRKYSPDAKIFVLLHKMDLVQLDKREELFQIMMKNLSETSSEFGFPNLIGFPTSIWDESLYKAWSQIVCSLIPNMSNHQSNLKKFKEIMNALEIILFERTTFLVICSSNGENSNENHDSSDNNNVLLDPKRFEKISNIMKNFKQSCTKLKSGFKTLILNNNIYVSELSSNMVCFIVLKDMNIPQELVLENIKKAKEFFQ,soluble
